Several values for one entry are separate records, joined by “and”; a condition that tells them apart may be missing. Equal entries are not always repeated.
T1: human CD38 (human, UniProt P28907 1-300)
T1 sequence: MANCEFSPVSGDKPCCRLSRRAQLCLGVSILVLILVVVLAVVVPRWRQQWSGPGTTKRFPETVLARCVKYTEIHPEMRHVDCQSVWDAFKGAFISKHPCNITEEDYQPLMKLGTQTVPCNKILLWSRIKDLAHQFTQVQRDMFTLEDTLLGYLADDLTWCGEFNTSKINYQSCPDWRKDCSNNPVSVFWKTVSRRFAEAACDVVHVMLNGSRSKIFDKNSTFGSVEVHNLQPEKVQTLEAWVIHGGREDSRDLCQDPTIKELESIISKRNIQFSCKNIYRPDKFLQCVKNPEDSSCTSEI

B1: MOR03079 human IgG1 (antibody, V domains shown)
VH: QVQLVESGGGLVQPGGSLRLSCAASGFTFSNYGMHWVRQAPGKGLEWVSNIRSDGSWTYYADSVKGRFTISRDNSKNTLYLQMNSLRAEDTAVYYCARRYWSKSHASVTDYWGQGTLVTVSS
VL: DIQMTQSPSSLSASVGDRVTITCRASQDISAFLNWYQQKPGKAPKLLIYKVSNLQSGVPSRFSGSGSGTDFTLTISSLQPEDFATYYCQQAYSGSITFGQGTKVEIKR
B2: MOR03080 human IgG1 (antibody, V domains shown)
VH: QVQLVESGGGLVQPGGSLRLSCAASGFTFSSYGMHWVRQAPGKGLEWVSNIYSDGSNTFYADSVKGRFTISRDNSKNTLYLQMNSLRAEDTAVYYCARNMYRWPFHYFFDYWGQGTLVTVSS
VL: DIELTQPPSVSVAPGQTARISCSGDNIGNKYVSWYQQKPGQAPVVVIYGDNNRPSGIPERFSGSNSGNTATLTISGTQAEDEADYYCSSYDSSYFVFGGGTKLTVLG
B3: MOR03077 human IgG1 (antibody, V domains shown)
VH: QVQLVQSGAEVKKPGASVKVSCKASGYTFTSYSINWVRQAPGQGLEWMGYIDPNRGNTNYAQKFQGRVTMTRDTSISTAYMELSSLRSEDTAVYYCAREYIYFIHGMLDFWGQGTLVTVSS
VL: DIVMTQSPLSLPVTPGEPASISCRSSQSLLFIDGNNYLNWYLQKPGQSPQLLIYLGSNRASGVPDRFSGSGSGTDFTLKISRVEAEDVGVYYCQQYSSKSATFGQGTKVEIKR
B4: MOR03100 human IgG1 (antibody, V domains shown)
VH: QVQLVESGGGLVQPGGSLRLSCAASGFTFSSNGMSWVRQAPGKGLEWVSNISYLSSSTYYADSVKGRFTISRDNSKNTLYLQMNSLRAEDTAVYYCARFYGYFNYADVWGQGTLVTVSS
VL: DIELTQPPSVSVAPGQTARISCSGDNIGHYYASWYQQKPGQAPVLVIYRDNDRPSGIPERFSGSNSGNTATLTISGTQAEDEADYYCQSYDYLHDFVFGGGTKLTVLG

biological target: T1, human CD38; assay: cell-based or functional assay

In order of rising ADCC EC50 [nM], LP-1:
1. B1  0.09 nM
2. B2  0.17 nM
3. B3  0.6 nM
4. B4  1 nM
5. Chimeric OKT10 (antibody)  5.23 nM

In order of falling ADCC EC50 [nM], RPMI8226:
1. Chimeric OKT10 (antibody)  4.1 nM
2. B4  0.28 nM
3. B3  0.08 nM
4. B2  0.05 nM
5. B1  0.04 nM

B2 was tested, and the “CDC EC50 [nM], CHO-transfectants” value was 3.2 nM and 2.93 nM.
For B3, the “CDC EC50 [nM], CHO-transfectants” value was 0.8 nM and 0.94 nM.
With B4 the “CDC EC50 [nM], CHO-transfectants” value was 10.9 nM and 13.6 nM.

Source: patent EP1720907B1 (MorphoSys AG, dated 2015)
